Assay results reported in publication PMC10287707.

B1: SL3 A68C (structured_RNA)
RNA: UGUUCUCUCAACGAACUUUAA
B2: SL3 U77C (structured_RNA)
RNA: UGUUCUCUAAACGAACUCUAA
B3: SL3 U77G (structured_RNA)
RNA: UGUUCUCUAAACGAACUGUAA
B4: SL3 U78A (structured_RNA)
RNA: UGUUCUCUAAACGAACUUAAA
B5: SL3 U76A (structured_RNA)
RNA: UGUUCUCUAAACGAACAUUAA
B6: SL3 U77A (structured_RNA)
RNA: UGUUCUCUAAACGAACUAUAA
B7: SL3 A68G (structured_RNA)
RNA: UGUUCUCUGAACGAACUUUAA
B8: SL3 U67C (structured_RNA)
RNA: UGUUCUCCAAACGAACUUUAA
B9: SL3 U76G (structured_RNA)
RNA: UGUUCUCUAAACGAACGUUAA
B10: SL3 A69C (structured_RNA)
RNA: UGUUCUCUACACGAACUUUAA
B11: SL3 U78C (structured_RNA)
RNA: UGUUCUCUAAACGAACUUCAA
B12: SL3-HP-U7 (structured_RNA)
RNA: UGUUCUUUUUUUGAACUUUAA
B13: SL3-GC (structured_RNA)
RNA: UGGGCUCUAAACGCCCUUUAA
B14: SL3-HP-C7 (structured_RNA)
RNA: UGUUCCCCCCCCGAACUUUAA
B15: SL3 A68U (structured_RNA)
RNA: UGUUCUCUUAACGAACUUUAA
B16: SL3-TL1 (structured_RNA)
RNA: UGUUCUCUAAACGAACU
B17: SL3-HP3 (structured_RNA)
RNA: UGUUCUAAGAACUUUAA
B18: SL3-TL-G3 (structured_RNA)
RNA: UGUUCUCUAAACGAACGGGAA
B19: SL3-TL-C3 (structured_RNA)
RNA: UGUUCUCUAAACGAACCCCAA

Molecular target: T1, TIA1 RRM2_3 (human, UniProt P31483-2 93-274)
T1 sequence: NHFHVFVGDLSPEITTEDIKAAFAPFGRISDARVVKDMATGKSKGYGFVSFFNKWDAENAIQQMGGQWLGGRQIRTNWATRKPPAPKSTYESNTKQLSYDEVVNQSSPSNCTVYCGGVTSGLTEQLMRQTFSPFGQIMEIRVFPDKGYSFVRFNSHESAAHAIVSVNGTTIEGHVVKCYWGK
Assay: EMSA; EMSA: 10 mM sodium phosphate pH 6.5, 50 mM NaCl, 1 mM DTT, 1 U/ul SUPERase-In, room temperature 20 min, native 1.2% agarose; RNA annealed in 10 mM Tris-HCl pH 7.5, 100 mM KCl
Conditions: protein: recombinant; tags: His6-SUMO removed by SUMO protease; label: 5'-Cy3; hairpin

Compared with B1, B2 is higher in binding signal: -0.04 ± 0.1 kcal/mol ddG vs WT SL3 for the first, 0.29 ± 0.11 kcal/mol ddG vs WT SL3 for the second.

B3 and B4 are within error of each other in binding signal: 1.18 ± 0.17 kcal/mol ddG vs WT SL3 for the first, 1.34 ± 0.19 kcal/mol ddG vs WT SL3 for the second.

B5 and B6 are within error of each other in binding signal: 1.22 ± 0.2 kcal/mol ddG vs WT SL3 for the first, 1.05 ± 0.2 kcal/mol ddG vs WT SL3 for the second.

First: B7
Second: B8
The binding signal of the first is lower: 0.09 ± 0.1 kcal/mol ddG vs WT SL3 for the first, 0.85 ± 0.21 kcal/mol ddG vs WT SL3 for the second.

B9 showed a binding signal of 0.94 ± 0.21 kcal/mol ddG vs WT SL3.

Molecular target: T1, TIA1 RRM2_3
Assay: as above
Conditions: protein: recombinant; tags: His6-SUMO removed by SUMO protease; label: 5'-Cy3; hairpin
Remark: another data set of the same source

Going from B10 to B11, the Kd rises from 420 ± 40 nM to 1340 ± 190 nM (3.2-fold).

Compared with B12, B13 is 10-fold higher in Kd: 540 ± 30 nM for the first, 5650 ± 1700 nM for the second. The first binds more tightly here.

Going from B14 to B15, the Kd falls from 1950 ± 440 nM to 460 ± 50 nM (4.2-fold). The second binds more tightly here.

Same assay, conditions: protein: recombinant; tags: His6-SUMO removed by SUMO protease; label: 5'-Cy3; hairpin, 1-nt 3' tail

B16 showed a Kd of 2860 ± 550 nM.

Same assay, conditions: protein: recombinant; tags: His6-SUMO removed by SUMO protease; label: 5'-Cy3; hairpin, 3-nt loop

Work on B17 yielded a Kd of 3870 ± 1060 nM.

Molecular target: T2, TIA1 RRM2-3 (Homo sapiens, UniProt P31483-2 93-274)
T2 sequence: T1 sequence
Assay: EMSA; 10 mM sodium phosphate pH 6.5, 50 mM NaCl, 1 mM DTT; room temperature, 20 min; 1.2% agarose; protein 0.1-10 uM; RNA annealed in 10 mM Tris pH 7.5, 100 mM KCl
Conditions: tags: His6-SUMO (cleaved; BamHI linker Ser or Gly-Ser may stay); label: 5' Cy3

Going from B1 to B2, the Kd rises from 0.73 ± 0.08 µM to 1.28 ± 0.18 µM (1.8-fold).

B3 and B4 are within error of each other in Kd: 5.77 ± 1.46 µM for the first, 7.54 ± 2.12 µM for the second.

Going from B18 to B11, the Kd falls from 2.77 ± 0.63 µM to 1.34 ± 0.19 µM (2.1-fold).

B5 and B6 are within error of each other in Kd: 6.16 ± 1.85 µM for the first, 4.66 ± 1.54 µM for the second.

Compared with B7, B19 is 2.5-fold higher in Kd: 0.9 ± 0.11 µM for the first, 2.22 ± 0.36 µM for the second. The first binds more tightly here.

B8 and B9 are within error of each other in Kd: 3.34 ± 1.04 µM for the first, 3.87 ± 1.25 µM for the second.
